The values below come from paper PMC11633098.

In assay [1] the target is human plasmin (human).
For assay [2], the target named is human plasmin (human). This is another data set of the same source.
Assay [3] concerns the target human plasmin (human). Put plainly: ELISA; inhibition assay: Plg or Pln coated at 0.5 µg/well; 100 nM rSesY with 0 to 10 mM tranexamic acid or arginine; anti-His HRP detection; RT, 1 h. For orientation: ELISA stands for enzyme-linked immunosorbent assay.
For assay [4], the target named is human plasminogen (human) (UniProt P00747). The description is as above.
Assay [5] deals with human plasmin (human). Description: ELISA; solid-phase binding: Plg, Pln or BSA immobilised on 4HBX plates; increasing concentrations (1 nM to 4 µM) of recombinant protein; anti-His HRP detection; one-site specific binding fit; apparent KD.
Assay [6] has as its target human plasminogen (human) (UniProt P00747). The assay is described as above.

Chain of UniProt P00747 (P00747 20-810): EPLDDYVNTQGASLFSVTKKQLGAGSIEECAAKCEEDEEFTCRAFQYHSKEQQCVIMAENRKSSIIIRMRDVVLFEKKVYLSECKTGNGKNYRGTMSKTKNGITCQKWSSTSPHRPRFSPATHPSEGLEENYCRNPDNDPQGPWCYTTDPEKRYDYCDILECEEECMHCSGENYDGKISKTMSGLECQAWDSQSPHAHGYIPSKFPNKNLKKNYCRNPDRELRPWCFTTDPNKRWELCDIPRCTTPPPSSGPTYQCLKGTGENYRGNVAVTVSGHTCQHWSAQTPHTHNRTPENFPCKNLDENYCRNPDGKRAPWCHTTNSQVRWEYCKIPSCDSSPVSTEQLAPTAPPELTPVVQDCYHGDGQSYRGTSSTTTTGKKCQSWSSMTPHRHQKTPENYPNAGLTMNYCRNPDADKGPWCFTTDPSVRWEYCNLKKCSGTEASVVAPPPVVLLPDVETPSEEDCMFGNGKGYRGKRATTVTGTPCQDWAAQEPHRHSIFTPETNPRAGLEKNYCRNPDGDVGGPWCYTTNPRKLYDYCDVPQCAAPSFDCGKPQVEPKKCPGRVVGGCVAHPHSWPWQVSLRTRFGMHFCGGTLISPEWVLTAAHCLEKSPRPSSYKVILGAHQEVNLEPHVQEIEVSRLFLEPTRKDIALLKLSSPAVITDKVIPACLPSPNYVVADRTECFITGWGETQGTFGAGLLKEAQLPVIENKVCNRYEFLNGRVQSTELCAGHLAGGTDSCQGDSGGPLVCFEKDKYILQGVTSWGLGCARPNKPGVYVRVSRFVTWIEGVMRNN

“recombinant SesY_(32–341) (S. epidermidis surface protein Y) (domain or fragment)”: the Vmax of Pln on S-2251 without and with rSesY (0 to 10 µM) with human plasmin (human) [1] came to 1.8 nM/min. The substance also returned a fibrin gel remaining at 6 h and 12 h after digestion of pre-formed fibrin gel by Pln with 1, 2.5, 5 and 10 µM rSesY (38% to over 80%) with human plasmin (human) [2] of more than 80%. In the assay with human plasmin (human) [2], this substance had a fibrin gel remaining at 12 h after digestion of pre-formed fibrin gel by Pln with 5 µM rSesY (controls 10%–25%) of 80%. Also, the percent reduction of binding by 2 mM tranexamic acid (in the assay with human plasmin (human) [3]; in assay [4]) was more than 85% each time. Moreover, the values for the Kd (with human plasmin (human) [5]; in assay [6]) were 16 nM and 210 nM, respectively.

Regarding “recombinant fibronectin-binding protein B N2N3 domain from S. aureus (from UniProt A0A0H2XKG3 37-940) (domain or fragment)”, the Kd in assay [6] was determined as 30 nM.
